From patent publication US20070093443A1

Target: T1, alpha-2 macroglobulin (in human plasma) (human) (UniProt P01023)
T1 sequence (looked up): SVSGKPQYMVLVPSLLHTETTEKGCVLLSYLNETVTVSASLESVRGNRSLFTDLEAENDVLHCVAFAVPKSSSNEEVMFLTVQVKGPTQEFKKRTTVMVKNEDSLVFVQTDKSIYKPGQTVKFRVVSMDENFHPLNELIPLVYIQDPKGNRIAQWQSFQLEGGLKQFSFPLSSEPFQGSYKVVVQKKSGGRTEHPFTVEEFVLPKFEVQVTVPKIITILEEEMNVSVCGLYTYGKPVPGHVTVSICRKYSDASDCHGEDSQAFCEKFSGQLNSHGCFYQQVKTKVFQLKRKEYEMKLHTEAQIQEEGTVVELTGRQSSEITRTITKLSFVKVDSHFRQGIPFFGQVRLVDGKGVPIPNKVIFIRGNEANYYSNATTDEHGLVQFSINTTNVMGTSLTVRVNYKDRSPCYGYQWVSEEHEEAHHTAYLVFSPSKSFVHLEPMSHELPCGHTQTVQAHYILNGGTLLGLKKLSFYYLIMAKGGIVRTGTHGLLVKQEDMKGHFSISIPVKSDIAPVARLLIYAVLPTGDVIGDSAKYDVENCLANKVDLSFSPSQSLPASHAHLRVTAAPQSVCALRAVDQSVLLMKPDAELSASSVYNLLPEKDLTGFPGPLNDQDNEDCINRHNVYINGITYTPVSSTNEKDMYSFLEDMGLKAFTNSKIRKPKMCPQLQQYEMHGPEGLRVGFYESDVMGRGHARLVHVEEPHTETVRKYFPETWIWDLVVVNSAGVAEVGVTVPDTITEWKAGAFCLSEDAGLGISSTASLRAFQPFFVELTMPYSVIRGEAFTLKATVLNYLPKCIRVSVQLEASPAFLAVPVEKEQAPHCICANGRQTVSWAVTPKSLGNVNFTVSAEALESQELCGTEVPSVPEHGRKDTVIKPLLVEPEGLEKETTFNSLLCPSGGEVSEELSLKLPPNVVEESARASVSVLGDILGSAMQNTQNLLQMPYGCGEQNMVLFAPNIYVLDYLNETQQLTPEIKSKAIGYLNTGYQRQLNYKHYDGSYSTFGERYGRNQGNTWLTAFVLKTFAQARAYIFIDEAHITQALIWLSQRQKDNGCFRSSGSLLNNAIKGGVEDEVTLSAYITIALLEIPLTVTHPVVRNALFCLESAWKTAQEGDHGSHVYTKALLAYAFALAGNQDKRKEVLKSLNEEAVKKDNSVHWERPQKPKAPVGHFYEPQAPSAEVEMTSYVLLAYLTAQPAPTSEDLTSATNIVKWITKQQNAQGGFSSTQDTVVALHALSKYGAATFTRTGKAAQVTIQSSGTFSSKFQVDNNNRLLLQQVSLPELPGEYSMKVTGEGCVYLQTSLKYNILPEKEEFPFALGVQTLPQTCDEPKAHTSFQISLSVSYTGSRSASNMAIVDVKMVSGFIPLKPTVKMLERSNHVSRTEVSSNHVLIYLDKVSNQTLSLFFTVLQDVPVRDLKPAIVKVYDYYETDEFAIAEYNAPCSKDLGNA
Experiment: Ac-RQAR-AMC activity of protease after 5 min in human citrated plasma, with and without M84R ecotin

% Unbound by a2M: 94%
B1: modified MT-SP1 CB484 (I41T/Y146E/Q175D/K224F) protease domain (enzyme)
chain: VVGGTDADEGEWPWQVSLHALGQGHTCGASLISPNWLVSAAHCYIDDRGFRYSDPTQWTAFLGLHDQSQRSAPGVQERRLKRIISHPFFNDFTFDYDIALLELEKPAEYSSMVRPICLPDASHVFPAGKAIWVTGWGHTQEGGTGALILQKGEIRVINQTTCENLLPQDITPRMMCVGFLSGGVDSCQGDSGGPLSSVEADGRIFQAGVVSWGDGCAQRNFPGVYTRLPLFRDWIKENTGV
